In the DeepSol protein solubility set:

Experiment: soluble on expression in E. coli; label from the status in PepcDB or PDB records

Sequence	soluble on expression in E. coli
MSLNDTFVVVDLETTGHSVKKGGRIIQIGMTFIKKRQIVDHFESFVNPGQLIDRQIQQLTHISQKDVQNAPYFEEIAPLLQNLLQNTVIIAHNVNFDYPYLNDEFERTGFPLLKSAAIDTVQLAQIMFPTAPGYRLLDLTTYLNITLKNAHRANADAHATALLFLKFWKKLEELPDITLKQLQQGDWPLLRQTQQFLKLVHSKNEGHHHHHH	not soluble
MSLNEQRFFRFLRERIGLDVESVGAPMVERALRQRCVAAGAMDLDDYWLRLQQSADEQQALIEAVIVPETWFFRYPESFTALASLAHKRLAQLAGARPLRLLSLPCSTGEEPYSLAMALFDAGMAPGAFLVDGMDISPSSVAKAGQAVYGRNAFRGSELGFRERYFDALDEGHRLHERVRQQVSLRVGNVLDPALASRDGLYDFVFCRNLLIYFDVPTQQRVFEVLKRLLHPQGVLFIGPAEGSLLARMGMRPLGIAQSFAYVRHEGDSAPLAAAPAQTAKRAFTTLPAPVYPQPSVPLPRSRRVLPVAARPARAREHSHEGASELLAGIARLANAGASEQARSECQRYLSQYPPSAQVYYWLGLLSDTEGDAQQALSHYRKALYLEPQHPEALVHLAALLAAQGDLAGARRLQERAARAGRESEREGHHHHHH	soluble
MSLNETKQFIKRHLFSARWLVRNLQQRYSTIERIAEFLAVNQYEFFTQPDGQLKPLTMKTIADALELHESTIARTVSNKYINSPKGIFSLRSFFTTKYTSEEGEDLSAKTVKEAILEIISGENKLRPFSDEKISEFLKSKGITCARRTVAKYRQALDLGNTQQRKKFHQSEGHHHHHH	soluble
MSLNEVHSIHGHTLLLITKPSLQATALLQHLKQSLAITGKLHNIQRSLDDISSGSIILLDMMEADKKLIHYWQDTLSRKNNNIKILLLNTPEDYPYRDIENWPHINGVFYAMEDQERVVNGLQGVLRGECYFTQKLASYLITHSGNYRYNSTESALLTHREKEILNKLRIGASNNEIARSLFISENTVKTHLYNLFKKIAVKNRTQAVSWANDNLREGHHHHHH	soluble
MSLNGNATDSSSSTSSMTENSDGQKQNNEWFHGVLQRQDADELLVKPGSFLLRASEVHGKMSMILSVRHDGKLHNIAVNSDTGENFWFEGHREKSIDQLVQWHMTTSTPITKTSGVKLKYPIGKADWIISHENVIFIKKLGEGAFGEVSLAECEIGGRKVETAVKTMRCQMTRDTRAAFMKEARLMRKYSHPHIVRIIGKIIVKHLPKVGLAVDAHPLMIVMEMCPHGSLLSFLRKNKGKTTLSERLRFCIESADGLAYLEKKQCLHRDIAARNCLLSITDQIKISDFGLSDDKRTEMHDDTLDKVPVKWLAPEVMQDKLYSLKSDVWAFGVLMWEIYADGADPYPGMTNLVTRAKIFCDDYRMTFPETTPPTISEIALKQCWAKLPSDRATMKTVHHKLKDLSMPMSDVSFSMKMKR	not soluble
MSLNINKVFYHSSTNMNEVPDNSVDLIITSPPYFNIKDYAKNGTQDLQHSAQHVEDLGALEKYEDYLLGLLKVWLECYRALKPNGKLCINVPLMPMLKKVLNTHYNRHIFDLHADIQHSILHDLNNMLKNKPKMFLLDVYIWKRANPTKRLMFGSYPYPRNFYAQNTIEFIGVFVKDGKPKQPTEEQKEQSQLTQEEWVEFTKQIWEIPIPNKNDIAFGKHAALMPAELARRLIRLYSCVGDVVLDPFSGSGTTLREAKLLKRNFIGYELYENYKPLIEQKLGNLFDFEEGHHHHHH	soluble
MSLNIQQQVNEMFSGMINVTSPGAYKTATRGVITGGSVVLRNRISTANLISITPPSAKGGCGGINLYSGSFSFINGEEFVALMRNVASNAAGIVSGFAFELALDAMDAQTGGVIRNLANKIQALNQMFSNSCQLASGLVTNAKKAYEESTDFKSAMTAFGSNVSSDFFTAKSTKEDSPANRIAASGKAVQCENTGNVLWCAMMKSGLQSQILFGSDENAEFIMSMVGSYNVSLTNDASGGKNFAAHPMPKLITGEGLKILVEGSTNLDVKVYQCDQDDPDCSEPNIRTLTSFKGLETRILEDLQNNGILERFANGTATAADGNRIAYLASSRVGVNLMKITQKAGAQSGYDYLNQFAKKIAADASMSLIYQLLGHTEKGLTSLNMADAGKVIEDLRATKGELMDEYRSYIEDAMQGKDADGQAEKMLQMAPVFDSGTLPQGTINDNAGAEGHHHHHH	not soluble
MSLNKLSNVTLSAEQEKLRERVLSFMRSNLSQYKSDWKHPAMFVIQGDAGTGKSVILNSLFNEIQKLSQFSPSSEDILHGTHNYLVVNHPEMLKLYIRISDSFKYISKSSLERPTSLINNLQKRKVMADVVIVDEAHLLATSKDAFKRFYGENHLKDLMSLCKVLVLVYDDKQALRMGSYWDEGSNNGATLKDFYNEIPPKSRDWYTLKQQFRVAAPQNVLNWIDQISVAGKEGHHHHHH	not soluble
MSLNKLVDAHCHVITDPDNTFCGDDGGSQGTLRCVMSSNPYDWNNLKKLAGRSTSKNDICVGFGVHPWYSHLFYVGSRRDKVSHYQDVLEYKNEEQFDSLVQVLPEPLDLEEYIKREFNDTLVSVIGEIGLDKLFRLPANGFYMQNEKARLTTVKVKLSHQETVFRRFCRLARHTSKPISIHDVKCHGKLNDICNEELLTYHSVKICLHSYTGSKETLLGQWLKKFPPDRIFVSLSKWINFKDPEEGDALVRSLPSTCILTETDYPIDNPDPSYQKALTEQLQYLNAQIARAWDETLDASQAALRVYENFQKFIKEGHHHHHH	not soluble
MSLNKQDGENTLQHEKSSSFGYWCSPSPEQLERLSLKQLAAVSNFVIGRRGYGCITFQHDVDLTAFTKSFREELFGKIVIFRSSKTVEVYPDEATKPMIGHGLNVPAIITLENVYPVDKKTKKPMKDTTKFAEFQVFDRKLRSMREMNYISYNPFGGTWTFKVNHFEGHHHHHH	soluble
MSLNKTKDIAASPLCFVSPYPQLAKAAEALVAQLDYAVTIHQTTLNRILDELPLLESRGHQVLISRGGCAEILKKHSKLPVVEIKMSGYDILDALIPFKGQKGTVGIVGFSSVIKGCARVAEQLNINYKIFTLQGNDKETISCLKRQLASTPLDCIVGDTVCQDYFSPLGSQFRLLDSSPASITEALEEARSLYLAFRSQLLERHHLQLILDQFDKAVITLDDTGALLHYNKYASQLFKINASGEIYDASFLKQVLHQERHTLREGKTVSAKVVDTPQGAMVVNLYPVFAARQLSRVVLTMQTVSSLQGAEHHVRRQELSRRGLSAREGHHHHHH	soluble
MSLNKVLVVEDEQLLAQNLQDYLSAQGLEVRIAHDGAEGIGLAETFAPDVLVFDYRLPDMEGFEVLDAVRQNRTCHFVLITGHPTAEVCERARQLGVSHILFKPFPLAELARAVCDLLGIQREAKPGASPSEGFVERRQSRTESFPLQLYDGSWVLADRRRNRSEAMAPDDDQMLTGEEGHHHHHH	not soluble
MSLNMTSKETKEGLAGYFSSDAAKMQSNNVSPVANNPFVQSTDKLDTRDFKITEVERSHYAIAQKLRQMLMADATPQSASGISADDVGVQLRVNSDIMYAPGSAELAPEGAKVLDDVIRILKEYNLYLVVRGHTDSGEPRNSIYPSNWELSGARAAAAVRYIITHGEIKPTRLRSIAYADTRPLEPNTSPDSRAKNRRVEFYFHRPEVMSYSVVYEGHHHHHH	soluble
MSLNRIFDAHCHIIDPQFPLIANNGYLPDPFGVGDYLATVQPLGVQGGAVVSGSFQGFDQGYLLQALRLLGPGFVGVTQLPASVTDTELDTLNAAGVRALRFNLKRGGSEQLDQLEALAVRVRERAGWHSELYIDSRELAEIETRLLKLPAISIDHLGLSAEGLPVVLRLAERGVRVKACGFGRVDFPVREALRDIHAANPNALMFGTDLPSTRAPRPFQPDDIELLIDALGEGGARQALWDNAAEFYREGHHHHHH	not soluble
MSLNRVFIVDDDTLTCNLLKTIVEPIFGNVEAFQHPRAFLTLSLNKQDIIILDLMMPDMDGIEVIRHLAEHKSPASLILISGYDSGVLHSAETLALSCGLNVINTFTKPINTEVLTCFLTSLSNRQAQRELVSFNNDKANQGKFDFIPTEQDLREAIDKKQLILYYQPQINMKTECLHGAEVLVRWLHPEFGLIYPDKFIALAEQTGLIEQLSEEVIHLAIKQSVHWQKLNRATRLSINISAQNITSLKLPEQLRMLVKKYEIDPSMIVLELTESALMDSEVTSLDIFTRFRLKGFQLSIDDFGTGYSSLSQLHKIPFTELKIDQSFVTNMKQEKESMAIVETCIMLAHKLNMEAVAEGIEDKETWDLLSAEGCDIAQGYYIARPMPADQFDKWQFNEGHHHHHH	soluble
